{"source": "paper PMC7118729", "target": "Nsp15 endoribonuclease WT (SARS coronavirus, UniProt P0C6X7 6430-6775)", "data": [{"binder": "UUUUUUUUUUUUUUUU (ssRNA)", "note": "[rU16 (U16)]", "values": [{"measurement": "IC50", "result": 15, "unit": "nM"}, {"measurement": "Ki", "result": 2.3, "unit": "nM"}]}, {"binder": "AAAAAAAAAAAAAAAA (ssRNA)", "note": "[rA16]", "values": [{"measurement": "IC50", "result": 53, "unit": "nM"}, {"measurement": "Ki", "result": 7.6, "unit": "nM"}]}]}
